This is an account of results in the DeepSol protein solubility set.

The nature of this series: soluble on expression in E. coli; label from the status in PepcDB or PDB records.
“MGSDKIHHHHHHMSGKIAFVTGATGLLGSNLCRALVSQGWQVKGLVRSLDKAKRFLGDSNIELIQGDIEDVPAFTQALKGVDVVFHTAAFFREYYQPGSDWQKMKRINVDTTIELLQAAEAQGVAKVVFTSSSGVIQTDPHQAATETAPYNKFAEQNLYFKTKILAEQEIYRFLNTSQIDVVMILPGWMMGPGDAAPTSAGQLVLDLLAGKLPGVINGGAALTDVRDVATVMVKAAEKGESGGRYIVAGPLTTMKEIALELEAISGVKAPRMEIPDGMAIAIAWFLEKFTGLTGGVNPMPLAGIQTLLEKAKLSSAKAERDLGATFRPLRETLKDTVLWYQSQGYV”: the “soluble on expression in E. coli” value is “not soluble”. Turning to “VLQTRNYTCGPAALVTVLQRLGVNTTEDELAGLAGTTEDGTTMQGLLEASRAKGVNATGMKLNISELKENMIAYTINDGTGHYTVINGITNDTVKLADPSLGNIEMNIEEFTEIYSGYALVINDPNNPR”, the “soluble on expression in E. coli” value is reported as “not soluble”.

As for “SRRLRTPLQDLTRAATSLAAGNSRIRVPAGGAGPEVATLAHAFNTMADRLEHTEQVRRQMLSDLAHEMGTPLSVLTAYLDGLQDGVVDWNNANHTIMADQLTRLTRLMEDIDYVSRAQEHRIDLDLAEEGLGD”, the “soluble on expression in E. coli” value was “not soluble”. “MGSDKIHHHHHHMMDYFSMTSHQDTKPSAQTSQWPVPTDSVRYVIPEPIVRQLAHHPLTRELYPLAFGHYRRAAGHHMHREHHRDNLLIYCTDGKAFLNVAGEPYTVTAGDLLLLPAGVSHRYTADPDNPWTIHWVHYTGPLAEDFGQYMGFDDSTRIRHLGRQPRLLVDFNGLLSVRQTGFRARGLIHASNRLRQLLAAVPINADETSQARQAELDSLHSFMREHLEERLTLNQLAELSGLSPAHFATRYREQTGTSPIQHFLHLKVERACELLDTTSQSFADISRQLGYDDAYYFSRLFKKVMGKSPTDYRHTARH”: the “soluble on expression in E. coli” value is reported as “not soluble”. As for “MKKTYVLDTNVLLQDPHAIFAFQDNEVVIPAVVLEEVDSKKRYMDEIGRNARHFSKLIDQLRGLGKLHEGVPLENGGKLRIELNHKSYEKVKDSFAEMTNDNRIIAVALNLSLEETEKPNGNQVILVSKDALVRVKADALRLKAEDFLNDRVIQYDRGY”, the “soluble on expression in E. coli” value was “not soluble”. Under “MQLSWKDIPTVAPANDLLDIVLNRTQRKTPTVIRPGFKITRIRAFYMRKVKYTGEGFVEKFEDILKGFPNINDVHPFHRDLMDTLYEKNHYKISLAAISRAKSLVEQVARDYVRLLKFGQSLFQCKQLKRAALGRMATIVKKLRDPLAYLEQVRQHIGRLPSIDPNTRTLLICGYPNVGKSSFLRCITKSDVDVQPYAFTTKSLYVGHFDYKYLRFQAIDTPGILDRPTEEMNNIEMQSIYAIAHLRSCVLYFMDLSEQCGFTIEAQVKLFHSIKPLFANKSVMVVINKTDIIRPEDLDEERAQLLESVKEVPGVEIMTSSCQLEENVMEVRNKACEKLLASRIENKLKSQSRINNVLNKIHVAQPQARDDVKRTPFIPESVKNLKKYDPEDPNRRKLARDIEAENGGAGVFNVNLKDKYLLEDDEWKNDIMPEILDGKNVYDFLDPEIAAKLQALEEEEEKLENEGFYNSDDEEEIYDGFEASEVDDIKEKAAWIRNRQKTMIAEARNRKSLKNKAIMPRSKLTKSFGKMEEHMSTLGHDMSALQDKQNRAARKNRYVERGSDVVFGDQDALTASTENGVKLRQTDRLLDGVADGSMRSKADRMAKMERRERNRHAKQGESDRHNAVSLSKHLFSGKRGVGKTDFR” stands “not soluble”; under “GATITHQEKLLTVDTTAHPFLKALGGHEGTDIFPLFMDPYNGLMVMRASFAPGLTLPLHFHTGTVHMYTISGCWYYTEYPGQKQTAGCYLYEPGGSIHQFNTPRDNEGQTEVIFMLSGCNVNFTQDGTYLGLSDAGVIKNWVDRAIREQDNGLRYIAAAVPTYAA”, “soluble”; under “MEVKELERDKNRVVLEYVFGAEEIAQAEDKAVRYLNQRVEIPGFRKGRIPKNVLKMKLGEEFQEYTLDFLMDLIPDTLKDRKLILSPIVTERELKDVTARVVVEVHEEPEVRIGDISKIEVEKVDEEKVLEKYVERRIEDLRESHALLEPKEGPAEAGDLVRVNMEVYNEEGKKLTSREYEYVISEDEDRPFVKDLVGKKKGDVVEIEREYEGKKYTYKLEVEEVYKRTLPEIGDELAKSVNNEFETLEQLKESLKKEGKEIYDVEMKESMREQLLEKLPEIVEIEISDRTLEILVNEAINRLKREGRYEQIVSSYESEEKFREELKERILDDIKRDRVIEVLAQEKGISVNDEELEKEAEELAPFWGISPDRAKSLVKARQDLREELRWAILKRKVLDLLLQEVKVKVVEPKGEGDDSEGKEDNLEHHHHHH”, “soluble”. Next, “MGQKMKNAPVYFTIAQVRHNPVLRLGSYAPDIQDRMRKAGYPDFKKGIAMAFTLAPQLGDAPQTQPPVVEQVERLMFFSTDSTRGFIVEQNALSFHTTEYETFEALADEFMRGLAIVHECVTLAHSERIGLRYLDAVVPPGGETGLAEYLAPGVLGLSSRLPEDVTVSHSFSETHIQTAKCAVLARTIIQSGPLGFPMDLQPIGVKVADRFREINGVHAIVDTDASIEGRHPFNLELIKSQLQVLRDGVGIAFDATVTPIAVSAWNS”: “not soluble”; “MSLKYGRDTIVEVDLNAVKHNVKEFKKRVNDENIAMMAAVKANGYGHGAVEVAKAAIEAGINQLAIAFVDEAIELREAGINVPILILGYTSVAAAEEAIQYDVMMTVYRSEDLQGINEIANRLQKKAQIQVKIDTGMSRIGLQEEEVKPFLEELKRMEYVEVVGMFTHYSTADEIDKSYTNMQTSLFEKAVNTAKELGIHIPYIHSSNSAGSMEPSNTFQNMVRVGIGIYGMYPSKEVNHSVVSLQPALSLKSKVAHIKHAKKNRGVSYGNTYVTTGEEWIATVPIGYADGYNRQLSNKGHALINGVRVPVIGRVCMDQLMLDVSKAMPVQVGDEVVFYGKQGEENIAVEEIADMLGTINYEVTCMLDRRIPRVYKENNETTAVVNILRKN”: “not soluble”; “MTLNITSKQMDITPAIREHLEERLAKLGKWQTQLISPHFVLNKVPNGFSVEASIGTPLGNLLASATSDDMYKAINEVEEKLERQLNKLQHKSESRRADERLKDSFEN”: “soluble”.

On to “MGSDKIHHHHHHMKWNWQQPDWPDFRWNSEALAVHEARFLQQSGIMIGVVKHLGDEDRTSVVLDVMTDEAMKTSQIEGELLNRDSVQSSLRREFGLETEARRIPPAERGIAEMMMALFRDFAAPLTEEVLGDWHRLVLSGRSDIDVVGRYREHEDAMQVVSGALHKPTVHFEAPPSREMAAEMARFLEWFAATGPGGATPLPGLTRSGLAHLYFVTIHPFEDGNGRIGRAIAEKALSQAIGQPSLIALSQTIQRRRSAYYDALEAANKSNEISDWLAYWAETVLDAQTHSLALIDFLLEKTRFHDRYRGKLNPRQEKVIARMFREGLDGFKGGLSAANYITIADTSRATATRDLQELVALGAMGQTGTLKATRYHLILDAVAGTNPPVNQA”, for which the “soluble on expression in E. coli” value is “not soluble”. Take “MRAMNDRLPSFCTPLDDRWPLPVALPGVQLRSTRFDPALLQPGDFALAGIQPPANILRAVAKRQAEFLAGRLCARAALFALDGRAQTPAVGEDRAPVWPAAISGSITHGDRWAAALVAARGDWRGLGLDVETLLEAERARYLHGEILTEGERLRFADDLERRTGLLVTLAFSLKESLFKALYPLVGKRFYFEHAELLEWRADGQARLRLLTDLSPEWRHGSELDAQFAVLDGRLLSLVAVGA”: the “soluble on expression in E. coli” value is on record as “not soluble”. For the sequence “MAHHHHHHMSDEDHDFAHQGGGDNASKTYPMAAGALKKGGYVCINGRPCKVIDLSVSKTGKHGHAKVSIVATDIFTGNRLEDQAPSTHNVEVPFVKTFTYSVLDIQPNEDPSLPSHLSLMDDEGESREDLDMPPDAALATQIKEQFDSGKEVLVVVVSAMGTEQVLQTKNAAEK”, the “soluble on expression in E. coli” value is reported as “soluble”. Under “MIPDTEQELINQYLKKISKIPLLTPEEEKELARRAKQGDKEALKKLVESNLRFVVSVAKQYIGYGLPFSELIAAGNLGLLEAAKRFDPDRGVKFISYAVWWIRQAIMQALSQQTGAVRIPLKQSHIINKISHIYGELSKKLEREPSPEEIAEELSKQMIAKELEKELGREPTEEEIEERFKKEGYKITPEEVEKYLQVCRVPLSLDAPVGENEDTFFIDFLSKHGTAEVEEKVIQEVIQKEIDDLLSKLTDKERKVIELRFGLKGNEPKTLREIGEILGLSRERVRQLETRALRKLRSLAMKRHLKDFLS” stands “soluble”. As to “MENNENHEKLNGVLRKFLGDAFTLDGKEGGLNMEKLREAIKKEKPIMNILLMGATGVGKSSLINALFGKEVAKAGVGKPITQHLEKYVDEEKGLILWDTKGIEDKDYENTLESIKKEMEDSFKTLDEKEAIDVAYLCVKETSGRVQERERESYLEHHHHHH”, the “soluble on expression in E. coli” value is “not soluble”. With “MRFFIALPAHAKRCRRAWRMEFISALPVGFAMNRRGLELRELLPLIPAEKLLIETDAPYLLPRDLTPKPSSRRNEPAHLPHILQRIAHWRGEDAAWLAATTDANVKTLFGIAFLEHHHHHH”, the “soluble on expression in E. coli” value is given as “not soluble”.

Take “MGSDKIHHHHHHMYDLIGVGIGPMNLGLSALAHPTPLRTLFFDESEQFSWHPGMMIKDSMMQTSFISDLVTLADPTSPFTYLNYLRSLNRLHTFYFYEKLLISRQEYNAYLKWVSTQLDDLHFSTRVIDIQDTGDSYEVLVEEVATGKRTTYETRNVVLGTGSKPSIPGSFDKNVIHNTQYVMEKEAILQQDKVSIVGSGQSAAEIFLDLLTSDRPETFELEWISRSTIFETLETGKLGEEIFSPSYVRYFNSLPLATRQEAVAKFTRSQNGISPETLQAIYEHLYDLSPEEQQRVKIRANLEVDQISYDSDFTITMRHTELNEQRTSKTGAVVAATGFVPSLPRFINRLDIEFEGEQQAWKVDANYRISRTVSANHHLYATTNLELSHGPAADNLGMSVSRNQLILNDVAGKELYPVEQHATFTTFD”: the “soluble on expression in E. coli” value was “not soluble”.

In the case of “MSLTTTPANVLASVDLGSNSFRLQICENNNGQLKVIDSFKQMVRFAAGLDEQKNLSAASQEQALDCLAKFGERLRGFRPEQVRAVATNTFRVAKNIADFLPKAEAALGFPIEIIAGREEARLIYTGVIHTLPPGGGKMLVIDIGGGSTEFVIGSTLNPDITESLPLGCVTYSLRFFQNKITAKDFQSAISAARNEIQRISKNMRREGWDFAVGTSGSAKSIRDVLAAEMPQEADITYKGMRALAERIIEAGSVKKAKFENLKPERIEVFAGGLAVMMAAFEEMKLDRMTVTEAALRDGVFYDLIGRGLNEDMRGQTVAEFQHRYHVSLNQAKRTAETAQTFMDSLCHAKNVTVQELALWQQYLGRAAALHEIGLDIAHTGYHKHSAYILENADMPGFSRKEQTILAQLVIGHRGDMKKMSGIIGTNEMLWYAVLSLRLAALFCRSRQDLSFPKNMQLRTDTESCGFILRIDREWLERHPLIADALEYESVQWQKINMPFKVEAVEGHHHHHH”, the “soluble on expression in E. coli” value was “soluble”. Under “MKRKRIDIITLGCSKNLVDSEQLMRQLEEAGYSVTHDTENPEGEIAVINTCGFIGDAKEESINMILEFAERKEEGDLKKLFVMGCLSERYLQELAIEIPQVDKFYGKFNWKELLQDLGKTYHEELYIERTLTTPKHYAYLKISEGCDRKCSYCAIPIITGRHISKSMEEILDEVRYLVSQGVKEFQVIAQELTYYGVDLYKKQMLPELIERISEIPGVEWIRLHYAYPAHFPTDLFRVMRERDNVCKYMDIALQHISDNMLKLMRRQVSKEDTYKLIEQFRKEVPGIHLRTTLMVGHPGETEEDFEELKEFVRKARFDRMGAFAYSEEEGTYAAQQYEDSIPQEVKQARLDELMDIQQGISAELSAAKIGQQMKVIIDRIEGDYYIGRTEFDSPEVDPEVLISVSREELEVGQFYQVEVTDADDFDLYAKILNKYELEHHHHHH” stands “soluble”.
